Laboratory results published in publication PMC9867570 (Science (New York, N.Y.), 2022).

T1: human NUP93^SOL (human, UniProt Q8N1F7 174-819)
T1 sequence: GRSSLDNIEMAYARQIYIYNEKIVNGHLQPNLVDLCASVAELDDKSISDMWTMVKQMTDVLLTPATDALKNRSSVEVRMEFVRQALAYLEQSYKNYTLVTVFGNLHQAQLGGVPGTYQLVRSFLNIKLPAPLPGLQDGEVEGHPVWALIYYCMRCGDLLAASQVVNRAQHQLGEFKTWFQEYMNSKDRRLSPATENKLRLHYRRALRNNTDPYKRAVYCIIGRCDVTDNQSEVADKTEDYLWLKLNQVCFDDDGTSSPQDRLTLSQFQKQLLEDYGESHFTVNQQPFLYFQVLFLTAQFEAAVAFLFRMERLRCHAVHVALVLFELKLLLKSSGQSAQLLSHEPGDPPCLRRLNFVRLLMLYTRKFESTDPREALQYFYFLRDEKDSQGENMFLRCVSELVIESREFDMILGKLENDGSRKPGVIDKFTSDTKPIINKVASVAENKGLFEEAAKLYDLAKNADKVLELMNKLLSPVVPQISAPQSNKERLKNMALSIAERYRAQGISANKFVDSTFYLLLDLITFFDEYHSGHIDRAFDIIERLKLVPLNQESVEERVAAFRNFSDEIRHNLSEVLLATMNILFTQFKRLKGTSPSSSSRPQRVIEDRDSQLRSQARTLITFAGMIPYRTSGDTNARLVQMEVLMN


What was measured:
human NUP93^SOL = biological target: T1, human NUP93^SOL; assay: SEC
[1] = biological target: Chaetomium thermophilum Nup192, full-length (Chaetomium thermophilum, UniProt G0S4T0 1-1756); assay: ITC
[2] = biological target: Chaetomium thermophilum Nup188, full-length (Chaetomium thermophilum, UniProt G0SFH5 1-1858); assay: ITC
Chain of Chaetomium thermophilum Nup188, full-length (G0SFH5 whole entry): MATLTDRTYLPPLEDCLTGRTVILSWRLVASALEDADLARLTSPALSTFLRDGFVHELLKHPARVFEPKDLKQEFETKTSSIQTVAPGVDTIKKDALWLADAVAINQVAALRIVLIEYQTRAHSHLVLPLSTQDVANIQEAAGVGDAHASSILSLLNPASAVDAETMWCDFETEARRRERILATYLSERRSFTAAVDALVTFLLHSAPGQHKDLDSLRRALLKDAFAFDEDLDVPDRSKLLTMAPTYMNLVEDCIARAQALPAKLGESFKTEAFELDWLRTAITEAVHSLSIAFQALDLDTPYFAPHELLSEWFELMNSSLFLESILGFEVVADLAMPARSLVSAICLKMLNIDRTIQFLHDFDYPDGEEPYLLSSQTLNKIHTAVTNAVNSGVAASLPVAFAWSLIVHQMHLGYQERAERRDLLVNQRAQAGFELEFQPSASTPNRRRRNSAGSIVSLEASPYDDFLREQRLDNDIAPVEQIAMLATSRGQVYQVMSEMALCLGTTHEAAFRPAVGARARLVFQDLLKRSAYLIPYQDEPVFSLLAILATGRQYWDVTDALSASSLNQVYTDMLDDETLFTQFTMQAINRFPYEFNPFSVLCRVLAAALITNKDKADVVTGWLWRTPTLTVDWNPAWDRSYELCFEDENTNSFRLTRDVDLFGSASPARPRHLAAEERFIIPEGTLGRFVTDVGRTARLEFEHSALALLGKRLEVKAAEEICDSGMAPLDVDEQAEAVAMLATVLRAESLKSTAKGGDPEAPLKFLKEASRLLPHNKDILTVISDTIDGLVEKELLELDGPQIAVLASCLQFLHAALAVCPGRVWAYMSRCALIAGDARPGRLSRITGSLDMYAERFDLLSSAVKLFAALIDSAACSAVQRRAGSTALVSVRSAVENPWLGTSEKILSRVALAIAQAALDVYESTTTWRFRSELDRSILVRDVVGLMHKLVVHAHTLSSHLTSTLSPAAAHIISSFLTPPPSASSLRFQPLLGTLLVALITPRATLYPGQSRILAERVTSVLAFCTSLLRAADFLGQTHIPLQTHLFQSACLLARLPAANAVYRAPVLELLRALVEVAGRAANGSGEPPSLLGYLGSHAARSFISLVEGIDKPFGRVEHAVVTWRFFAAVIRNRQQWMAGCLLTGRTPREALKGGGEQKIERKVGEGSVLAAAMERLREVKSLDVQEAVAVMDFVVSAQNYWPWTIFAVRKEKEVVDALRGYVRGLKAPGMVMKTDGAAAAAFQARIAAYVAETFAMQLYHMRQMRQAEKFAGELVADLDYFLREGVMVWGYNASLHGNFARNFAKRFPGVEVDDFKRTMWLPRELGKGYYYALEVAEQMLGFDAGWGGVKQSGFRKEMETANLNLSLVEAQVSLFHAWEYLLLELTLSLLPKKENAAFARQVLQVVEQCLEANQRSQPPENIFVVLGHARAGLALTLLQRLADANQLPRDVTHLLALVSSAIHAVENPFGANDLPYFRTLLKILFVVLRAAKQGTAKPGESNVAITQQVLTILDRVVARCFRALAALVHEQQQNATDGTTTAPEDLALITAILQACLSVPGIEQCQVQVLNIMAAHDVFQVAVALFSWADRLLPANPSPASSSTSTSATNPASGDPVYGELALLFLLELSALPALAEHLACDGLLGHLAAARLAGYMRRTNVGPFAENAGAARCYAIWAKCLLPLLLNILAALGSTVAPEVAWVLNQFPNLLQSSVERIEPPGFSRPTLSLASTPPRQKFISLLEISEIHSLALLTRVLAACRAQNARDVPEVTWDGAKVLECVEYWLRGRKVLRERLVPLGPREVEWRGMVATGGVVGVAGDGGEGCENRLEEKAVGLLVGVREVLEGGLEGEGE

Chain of Chaetomium thermophilum Nup192, full-length (G0S4T0 whole entry): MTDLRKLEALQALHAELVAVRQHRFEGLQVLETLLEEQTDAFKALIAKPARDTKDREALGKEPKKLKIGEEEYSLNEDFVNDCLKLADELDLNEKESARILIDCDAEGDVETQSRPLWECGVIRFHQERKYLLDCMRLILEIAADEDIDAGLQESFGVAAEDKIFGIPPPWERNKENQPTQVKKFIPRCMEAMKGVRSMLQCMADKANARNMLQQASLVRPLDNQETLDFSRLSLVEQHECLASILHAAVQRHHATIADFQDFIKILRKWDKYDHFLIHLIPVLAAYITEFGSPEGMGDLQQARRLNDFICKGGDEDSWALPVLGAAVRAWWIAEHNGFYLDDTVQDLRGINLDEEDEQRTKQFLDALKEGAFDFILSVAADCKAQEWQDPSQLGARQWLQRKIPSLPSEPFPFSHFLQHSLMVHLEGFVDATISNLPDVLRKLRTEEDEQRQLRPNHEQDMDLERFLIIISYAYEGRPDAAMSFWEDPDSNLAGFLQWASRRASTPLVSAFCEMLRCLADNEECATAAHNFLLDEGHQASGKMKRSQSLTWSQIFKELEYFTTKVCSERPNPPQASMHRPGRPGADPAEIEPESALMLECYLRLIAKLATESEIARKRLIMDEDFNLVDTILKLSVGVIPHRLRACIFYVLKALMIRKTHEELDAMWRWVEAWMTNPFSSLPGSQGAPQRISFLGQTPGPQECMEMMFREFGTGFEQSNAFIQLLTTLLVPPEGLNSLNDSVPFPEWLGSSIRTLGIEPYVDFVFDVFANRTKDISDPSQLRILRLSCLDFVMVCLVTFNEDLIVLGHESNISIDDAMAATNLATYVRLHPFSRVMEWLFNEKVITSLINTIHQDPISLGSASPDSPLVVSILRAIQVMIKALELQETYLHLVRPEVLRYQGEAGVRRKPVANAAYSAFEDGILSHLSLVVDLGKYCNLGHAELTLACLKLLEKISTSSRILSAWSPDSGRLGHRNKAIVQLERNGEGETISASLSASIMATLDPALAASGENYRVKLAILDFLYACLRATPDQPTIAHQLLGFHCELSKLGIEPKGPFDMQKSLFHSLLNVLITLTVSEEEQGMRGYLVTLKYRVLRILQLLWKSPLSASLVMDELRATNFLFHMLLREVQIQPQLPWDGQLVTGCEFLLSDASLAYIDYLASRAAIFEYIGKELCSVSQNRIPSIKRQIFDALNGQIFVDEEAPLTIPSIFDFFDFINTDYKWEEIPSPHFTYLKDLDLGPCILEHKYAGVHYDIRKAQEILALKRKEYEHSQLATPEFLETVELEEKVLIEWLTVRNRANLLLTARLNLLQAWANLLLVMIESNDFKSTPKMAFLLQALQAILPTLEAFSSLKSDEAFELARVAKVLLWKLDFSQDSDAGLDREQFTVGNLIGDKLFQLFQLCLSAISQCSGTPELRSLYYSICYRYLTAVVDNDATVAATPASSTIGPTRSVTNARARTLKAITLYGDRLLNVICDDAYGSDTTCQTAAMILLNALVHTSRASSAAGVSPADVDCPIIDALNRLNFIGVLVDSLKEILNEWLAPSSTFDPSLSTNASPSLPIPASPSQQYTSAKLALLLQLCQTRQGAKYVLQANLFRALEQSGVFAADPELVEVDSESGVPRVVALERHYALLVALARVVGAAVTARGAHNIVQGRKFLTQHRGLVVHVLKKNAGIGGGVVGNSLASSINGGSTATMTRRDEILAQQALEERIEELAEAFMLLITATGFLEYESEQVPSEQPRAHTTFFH

binding result (human NUP93^SOL) | Kd [1] [nM] | Kd [2] [nM] | Binder
binds |  |  | SUMO-NUP53^N (residues 1–169) (domain or fragment, human, UniProt Q8NFH5 1-169, looked up) MAAFAVEPQGPALGSEPMMLGSPTSPKPGVNAQFLPGFLMGDLPAPVTPQPRSISGPSVGVMEMRSPLLAGGSPPQPVVPAHKDKSGAPPVRSIYDDISSPGLGSTPLTSRRQPNISVMQSPLVGVTSTPGTGQSMFSPASIGQPRKTTLSPAQLDPFYTQGDSLTSED
binds |  |  | human NUP53^R2 (residues 84–150) (peptide, UniProt Q8NFH5 84-150, looked up) DKSGAPPVRSIYDDISSPGLGSTPLTSRRQPNISVMQSPLVGVTSTPGTGQSMFSPASIGQPRKTTL
 | ~1600 |  | Nup145N^R1 (residues 616–683) (peptide, UniProt G0SAK3 616-683, looked up) ATPLSGKAKVKSRSILPMYKLSPANASRLVTTPQKRAYGFSFSAYGSPTSPSSSASSTPGAFGQSILS

More lines, now with the values behind:

Binder | binding result (human NUP93^SOL) | Kd [1] [nM] | Kd [2] [nM]
Nic96^187–301 (domain or fragment, Chaetomium thermophilum, UniProt G0S024 187-301, looked up) EPGKAHYFLAASGVDPGAAVRDLGALGLQAKTERTAASVGPAAGPSGVSTTGFGTGLGEVDVDTYLSNLQTKTTLSMIADGLERSARDFDAFLEENVTLEWEAQRKRIYQHFGIK |  | ~75 | ~90
Chaetomium thermophilum Nup145N (natural protein, UniProt G0SAK3 1-993, looked up) MSFGFGSGGFGQNNNSSTFGGFGSTPTTNTGFGSTGTTAFGSTSNTTGGGLFGGGGGGFGSGNTFGSGFGSKPAFGTPATTSSTSLFGSTTTTAGGTGFGSGGFGSTNTSSPFGGGGTSLFGNKTTTGFGSGTSTFGSNTGGGLFGGGSTTTGFGATNNPGIGTNVGDPPGTAVVPFSPTVEKEVNNPSQSNSYQNILFMDAYKKWSAEELRLADYNQGRKTAAPGGTGAFGSSGFGGFGTTSNTGGFGSNTGGGLFGNTQQNTGGFGTTNTTGSAFGSGGGLFGNKPATGGLFGTSSSQPAQSGGLFGSGTASTFGSSNTGTTSTFGSNNNTGGGLFGSNNTSSKPAFSFGTSNTSTPGFGTATTGSGFGTGTTTNTGGGLFGNTAQNTNTGGGLFGNQQQSGSAFGSGTGFGQQNQSTGTSLFGNTQQKPGGLFGSTTTNTSGGLFGSTNTGTSTFGQTPATQNTGGGLFGSKPAGTGGLFGSTATNQPASTGGLFGNLNTNAQTQQPATGGLFGNLGQNNQAKPSLFGTSTTTGGGLFGNTNAQQQTGSLFGTSTAQQQPQTGLGASLFGSSQQQQQQPQTFSTSITDISAYGATTLFSGLPDDKIQNPGPLATPLSGKAKVKSRSILPMYKLSPANASRLVTTPQKRAYGFSFSAYGSPTSPSSSASSTPGAFGQSILSSSINRGLNKSISASNLRRSLNVEDSILQPGAFSANSSMRLLGGPGSHKKLVINKDMRTDLFSPPNKDKQPQEDGTAARKTVTKRVSFDTSNVETPEKTIESSIPATDDSGYLKPDARSTANGTNGANGAKSSPVAAASPPEMEQVKGKELAVVHEEESPAPAQTDKPRGSQIEPGAYWMSPTADDIRAMNRMQRQRVVGFTVGRENVGSVQFKVPVDLSNINLDDLFGTIVILEPRSATVYPNAAKKPPMGKGLNVPALISLEHSWPRGGPTIKGRRLERHIERLKSIPDTTFESYDPETGVWAFSVEHF |  | ~825 | 
Nic96^R2 (residues 240–301) (peptide, UniProt G0S024 240-301, looked up) GTGLGEVDVDTYLSNLQTKTTLSMIADGLERSARDFDAFLEENVTLEWEAQRKRIYQHFGIK |  | ~75 | ~90
